Data: US20240002495A1 (MITSUBISHI TANABE PHARMA, published 2024)
Numbering of substitutions follows the chain as printed.

T1: biotinylated 6His tag-AviTag-linked mature human IL-33 (residues 112 to 270) (human, UniProt O95760 112-270, biotin on the AviTag portion (BirA))
T1 construct: made in E. coli; also called biotinylated human IL-33 protein
T1 sequence: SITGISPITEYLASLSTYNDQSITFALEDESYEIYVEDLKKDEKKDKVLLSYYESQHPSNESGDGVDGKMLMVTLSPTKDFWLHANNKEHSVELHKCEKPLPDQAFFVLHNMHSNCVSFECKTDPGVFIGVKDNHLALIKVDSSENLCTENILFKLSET

T2: 6His-AviTag-linked cynomolgus monkey IL-33 (residues 112 to 269) (cynomolgus monkey, UniProt O95760 112-269 (human entry), biotin on the AviTag portion (BirA) in the SPR of Example 7; used without biotinylation in Example 10)
T2 construct: GenBank EHH57404 printed; also called cynomolgus monkey IL-33 protein; mature cynomolgus monkey IL-33
T2 chain: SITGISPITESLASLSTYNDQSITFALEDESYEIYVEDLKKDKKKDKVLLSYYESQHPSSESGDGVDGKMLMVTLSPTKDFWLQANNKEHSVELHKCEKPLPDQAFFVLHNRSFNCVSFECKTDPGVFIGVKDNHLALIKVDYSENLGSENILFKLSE

B1: A28-2C06 (Fab) (Fab, V domains shown)
VH: EVQLLESGGGLVQPGGSLRLSCAASGFTFSNYYMHWVRQAPGKGLEWVSSISARSSYIYYAGSVKGRFTISRDNSKNTLYLQMNSLRAEDTAVYYCARLGTRRVAFDIWGQGTLVTVSS
VL: QSVLTQPPSASGTPGQRVTISCSGSSSNIGRNAVNWYQQLPGTAPKLLIYASNMRGMGVPDRFSGSKSGTSASLAISGLRSEDEADYYCSAWDDSQKVVVFGGGTKLTVL
notes: Fab secreted by E. coli, tested as culture supernatant; also called V25
B2: A28-2F01 (Fab) (Fab, V domains shown)
VH: B1 VH with A53S, Y57H, I58Q, T101L, R103H, V104D
VL: B1 VL with R31H, N35W, G56R, S90A, V98A
notes: Fab secreted by E. coli, tested as culture supernatant; also called V26
B3: A28-2G07 (Fab) (Fab, V domains shown)
VH: B1 VH with N31S, G62D, G100A, V104I
VL: B1 VL with G56R, M57P, V98A, V99G
notes: Fab secreted by E. coli, tested as culture supernatant; also called V27
B4: A28-2H06 (Fab) (Fab, V domains shown)
VH: B1 VH with R54L, I58R, G62D, G100A
VL: B1 VL with R31N, G56R, M57L, S90A, V98A, V99L
notes: Fab secreted by E. coli, tested as culture supernatant; also called V28

target: T1, biotinylated 6His tag-AviTag-linked …; experiment: SPR, IL-33 on chip, Fab supernatant as analyte
Method: (§1) The library after the enrichment was used to construct a library of Escherichia coli secreting and expressing Fab. The culture supernatants of several hundreds of clones of Escherichia coli were subjected to measurement of dissociation rate constant (koff) by surface plasmon resonance (SPR) (ProteOn XPR36, available from Bio-Rad Laboratories, Inc.). The biotinylated human IL-33 protein (4 μg/mL) and cynomolgus monkey IL-33 protein (4 μg/mL) were loaded as ligands on a sensor chip (NLC sensor chip, available from Bio-Rad Laboratories, Inc.), to immobilize the human IL-33 protein at an amount equivalent to 1300 to 1600 RU, and the cynomolgus monkeyIL-33 protein at an amount equivalent to 1100 to 1500 RU. The culture supernatant of Escherichia coli was then loaded thereon as analyte to obtain a sensorgram with association phase of one minute and dissociation phase of 10 to 30 minutes. The sensorgram was subjected to interspot correction and blank correction using an SPR data analysis program (ProteOn Manager v3.1.0, available from Bio-Rad Laboratories, Inc.), and then values of koff were determined by off-rate analysis of Langmuir model.

First: B1
Second: B2
The “Human IL-33 Binding Amount (RU)” value of the first is lower: 123 RU for the first, 289 RU for the second.

First: B3
Second: B4
The “Human IL-33 Binding Amount (RU)” value of the first is lower: 289 RU for the first, 349 RU for the second.

B1 and B2 are the same in koff: 1e-05 s⁻¹ for the first, 1e-05 s⁻¹ for the second.

B3 and B4 are the same in koff: 1e-05 s⁻¹ for the first, 1e-05 s⁻¹ for the second.

Target: T2, 6His-AviTag-linked cynomolgus monkey …
Experiment: SPR, IL-33 on chip, Fab supernatant as analyte
Method: as §1

Compared with B1, B2 is higher in “Cynomolgus Monkey IL-33 Binding Amount (RU)” value: 134 RU for the first, 258 RU for the second.

Compared with B3, B4 is higher in “Cynomolgus Monkey IL-33 Binding Amount (RU)” value: 259 RU for the first, 317 RU for the second.

B1 and B2 are the same in koff: 1e-05 s⁻¹ for the first, 1e-05 s⁻¹ for the second.

B3 and B4 are within 1.5-fold of each other in koff: 1.14e-05 s⁻¹ for the first, 1e-05 s⁻¹ for the second.
